Measurements taken from a protein production outcome set (Wang et al. 2014).

Test: label from the status in PepcDB records
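Note: failed if final PepcDB status was selected cloned or expressed and not failed if soluble or beyond.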

Sequence | protein production
MANLAASTCLYSWLLVLLLSSVSAIIDEDTQVYIVYMGSLSSRADYIPTSDHMSILQQVTGESSIEGRLVRSYKRSFNGFAARLTESERTLIAEIEGVVSVFPNKILQLHTTTSWDFMGVKEGKNTKRNLAIESDTIIGVIDTGIWPESKSFSDKGFGPPPKKWKGVCSGGKNFTCNNKLIGARDYTSEGTRDTSGHGTHTASTAAGNAVKDTSFFGIGNGTVRGGVPASRIAAYKVCTDSGCSSEALLSSFDDAIADGVDLITISIGFQFPSIFEDDPIAIGAFHAMAKGILTVSSAGNSGPKPTTVSHVAPWIFTVAASTTNRGFITKVVLGNGKTLAGRSVNAFDMKGKKYPLVYGKSAASSACDAKTAALCAPACLNKSRVKGKILVCGGPSGYKIAKSVGAIAIIDKSPRPDVAFTHHLPASGLKAKDFKSLVSYIESQDSPQAAVLKTETIFNRTSPVIASFSSRGPNTIAVDILKPDITAPGVEILAAFSPNGEPSEDDTRRVKYSVFSGTSMACPHVAGVAAYVKTFYPRWSPSMIQSAIMTTAWPVKAKGRGIASTEFAYGAGHVDPMAALNPGLVYELDKADHIAFLCGMNYTSKTLKIISGDTVKCSKKNKILPRNLNYPSMSAKLSGTDSTFSVTFNRTLTNVGTPNSTYKSKVVAGHGSKLSIKVTPSVLYFKTVNEKQSFSVTVTGSDVDSEVPSSANLIWSDGTHNVRSPIVVYIMVVDEA | failed
MTFEDPSFWAALLTAATTAGAITILVALVRRNQAKGPDRRAREDAEIFLGLSDGLIVLDDGGRVSALNRAAQRMTGQEGEAAVGKSARRLLPGLESVLEGKDRLASSLGLWCRLPATGREEALASTLGALLSETTGPAGTRTVLVLRDISEQIRLTEVDDWLRVIDGHLLAGTSLGDLANDLCERVARAFGLPLLWIGVPRPEGLLVVGKGGSEAARLSAYPEGRGDEGTQGVAGRTLRSGRAQSDDAGEGWAAPTWAPGVPLGRAYCVGLRARGEVVAVLCLRGHGEAPSPALSRALEALGPRLGEAIVYERGQSLMRLQSAAIAAAANAIVITDGEGRVEWVNEAYHLLSGYERDQIIGTLPAVLAGPSAANPTAIEAWPTLRAGQVWRGEIHETHRDGRTYIVDKTITPIVDASGRLSHLVAVDEDVTARKKAEERIRYLSNYDTLTRLPNRVLFRDRLYQAVVQARRGHGGLAVMFIDLDQFSLVNDTLGHAAGDHLLMTIASRINAAAEEADTVARVGGDEFALIQTALTSADSAASLARRLIDVIRTPVDLGGREVVIGANVGIAIYPQDGTDPDNLMKNADMAMYRAVKSGDDSCCFFSNEMNAEAAVRLSLEEDLRRALDSGDQLFLHYQLQFCIESGRPVGAEALARWTHPTLGAIPPTRFIPVAEDSGLILALGDWVLGTALAEYARWRAAGCGRLTIAVNMSAVQFRQKGLVERVTDLLAQHGVPPEDLELELTESMLMQDADQAVAQLTALSQAGIRLSIDDFGTGYSSLGYLKLFRVDKLKVDQSFVRDVTEDGNDAVIARAIINLGHSLGLEVIAEGVETPEQMAYLRREGCDVVQGYLMAYPEPGETVARRLLALDALSAAPAAVVMSRSD | failed
PVNQVQSSVSWPQNGSLNSVSAPLMSYTPISFDAKIPVASVDKLRKDQDLILGTLPANSEDAGARGLFVRANDDGLQITSHGELVLDLSKRELAQLPADATIAISATEDETTAGIEGDDSTTETVERDVRPIIMGIYTELESNAAADLLNAGLNAHVEINSRFTSSPTLAKYAS | not failed
MYILIGGMGSMGSNLAKNLLKMGHTVAAVDTDPLACQYAREKIGVMAFEGSAVNTSVLLEAGVRKAGAVIAALQEDALNLALVTLSKHYGVPQIVVRMSDGDFAEPYRLAGATHIISTTELALNRVINAIEYPQVDAMMHFEQGQIEVLKLSIPPNCTIVGRSVAAIAQDPRFPSGTLIIGYQANAHEDLKIPNGNTLLEDGSTILAVTKPELVRQLIDFMGLCQS | failed
MILTRSSLVKRLTLMIMFAVIAVLVVAGISFNMLSQHHFRMLDEQALSEKLESTRHILSIQAPGTGMEELRPQLRALLGAHQDLTAEILTSEGEVLFSDLKAVQIPDKYKRADKEEMWEWQDESHNFRGITTDVEIQGQPAPGTVMLMLDITSHAHFFETLQRWFAIGLVISALVSAGIGWLVAKSGLRPVEQITKVATSISARSLQERIPLEPVPLELQTLILSFNGMLARLEDAFVRLSNFSADIAHELRTPVSNLLTHTEVVLTRKRDVDAYEENLYSNLEDLKRMSRMIDDMLFLAKSDNGLIIPEQVDIQLHDLVSKLFEYYQLLADDRGIRLTLQGKGVISGDRLMIDRAVSNILSNAVRYTPDGSGISVEIQQAADKVTLTIKNGGATIDPQHINKIFDRFYRADPARREGGPSNAGLGLAITRSIVKAHDGKVWCTSSEGVTAFNFIFPAAHRTAHIRTRH | failed
MNILKMKKTGIFLGGVLFGTVGVKILSSDCVKKTCTRATAGALKVKDSVLETTTKIQENVEDILAEAKEINEQEDLSTSKVNVVQDTLKCEQEVLKTETIKTVEDTNSNSIKCEEIKDNVIEEKNSTCTTE | failed
MTLLDSMIVMIYLLFIGIAAWLFRRFSTSSNDFLQGGGTMMWWMAGATAFMTQFSAWTFTGAAAKAYEDGISVMFIFWGNALGFFVAAAFFARRYRRLRVETAMEVIRVRFGHTSEQLFTWLSFPLTLIACAIWMNGLASFFSAVFAIEMSTTILAMGVIVTLIAVSGGAWTVSVTNVIQLVLLIAITLVIGYTALQHFDSPSEVFAYTTPIYGEQIRMPSLFVMWAIAMLLQQTMSNNHTLSCYRFLTTANDKDATKAAFVAGVLFVFAPVLWFMPAWFVAAQNIDLLAIYPALEQSANNAAYLYYIQHYMPQGLLGLVMVALVAATIAPLSSAHNRNAGIVVKSLYQVWFNPNATSRQQLMVGKIATIVSGILATVTALLLASVESYSLFDMMIVFAAFIQMPINIPSLLALVSLKTPNWSGWATVMVGCVVSLFMMFIFDVQWISSSPLTPRESKDLSVVATLAVHLLVTGGFFLSTRVFYAKESPSIQQSRTALSIQLATPISDEELSPINHKQGLYVGSITALAGMLLILAGVVLAGSSQSIFVAIGCIVLLFSLFLLQPTLHSKRAWQKQKTK | failed
MATSRTQRDVWVYVGIGAMVSALVLFSLVPLVMGLWQPRPAADGVVNGGTPLESQALGYQLVLEREPDNVNALQGLLEIRLQQKNLAAAIAPLERLGQIRTDQVQYRILLAQLKTQLEDNAGAAKVYREILTQSPHNIQALKGLSGLYAQQERPAEAVAIVQNAITQAIKAQTGAPGTVPPDQLTSLQLLLGEIYLSQNRPDQAIAIYEAASKVNGNDFRPVLAQAQVMAQTGKVKEADPFFQQAIMLAPVQYKDPIKNIALQVTNQALANQNGAPETSIPSPAPILKSE | failed
MERLISHPPLMIVSDLDHTMVDHQDHENLSLLRFNSLWEYAYRRDSLLVFSTARSPVLYKELRKEKPLLTPDIIITSIGTEIAFGNSMVPDHAWVESLNSCKWNREIVLEETSKFPELTLQPKTEQRLHKVSFYIDEGKGEALTKELSQLLEKRGLDVKIIYSWGKNVDVIPRGAGKGEALEYLLKKLQAEGIFPVNTLACGDSEHDAELFSIPDVHGVMVSNSQEELLKWRSENALNNLKVIHSTERCADGIIQAIGHFNLGPDLSPRDVSEFLDRKMDNVNPGHEVVRFYLFYERLRRGEIKNYETYIASFKDSCAEKSLRDTIDELKKCYGDKRGKKFWVWVDQVLVTDTIPGKWIVKFDKWEQCEDESQCCKTTVEFTSKGGDLVWEKVKQIWSEESKVKDDNSSWIL | not failed
MGHHHHHHSHSVGMDTFIHRIDSTEVIYQPRRKRAKLIGKYLMGDLLGEGSYGKVKEVLDSETLCRRAVKILKKKKLRRIPNGEANVKKEIQLLRRLRHKNVIQLVDVLYNEEKQKMYMVMEYCVCGMQEMLDSVPEKRFPVCQAHGYFCQLIDGLEYLHSQGIVHKDIKPG | failed
MRVTHFFMAAIAVVFVLAGCSTMPKKPDSLTRGDYGYTKEYVSWLIKKEMRENDVTGLSIALVDDQRVVWAQGFGVADEANKVPATPDTIYRVGSISKLFTATAVLQLAEQGKMDIDKPLSTYLPEFSVKSRFPDAGPITPRTLMTHHSGLPSDFLKGMWTNNPEPISNVVNLLKDEYAQYPPNFVFSYSNLGVSLLGNAVERIAGRPYASQIDETVLHPLGMASSSFSTHSDVASRLAKGYRNGKEIGEPQLRDIPAGGLHTNVLDLSRFMEMVFAGGKAGERRILKEETLAEMLSPQNDGVPLDHDFHIGLGWLLTDVGIENAGKVAWHDGATLLYRSQMVILPEQKLGVVVLSNSATAASVVHKVATEALKLAMEAKAGIRQPERSKPVEREADLSPEERQKLAGAYVTPFGTVKVIESGTTLRTEFFGKTFSVVPRNDGRMGLRYRLLGVIPISLGDLDYLGFSTSTVSGHNVLLATAAGKSMLVGEKMEPVLVSEQWQRRVGAYEIANPGDDTMLVDDIRLRYEDGFLRVDYALPLFFDGKLNVSLQPLSDTEAVIRGLGRGMGETIRVVAVNGEEMLQYSGYLLKKKRE | failed
MKYISPGFVDAHSHIGMIPDGLEWEFQEANDFYSPIAPHLRAVDGFDPYDEAFKEAIAGGVTTVATGPGSANVMGGIGLLAKTYEEGFEKIIKPEAFIKMALGPKRPREYKSKYPYPTTRMGTVALMRTWFKRAREFMEGKIKTDNIDEEEIEMLRLLARALKREIQVKIHLSTSPDEIYAAIRIIKEFNLNATIDHAFGSQLVADMLSREGIPVIYGPPMITRIASFFRYVDDKAPVLLFKKGVNVSIMTDHPVLPEKHLRLLAAVVARNGLSLDDALKLITINPAKALGIDRFVGSLEHHHHHH | failed
MSQMSPGQARVVDPILSTHARGYRQSTLIGKKLFPVAPVAQYGGKILTFGKEAFRLYNTKRAPGANTKRIDFGYEGDPYSIVPSALEAKVPRELMRDASQVPGIDLGARSVNTVLRIMALAHEHECAQIALDPAKYNADHKVKLVGSARWTSPDSDPTKDVETAKEAIADSIGMEPNRLMLSRKALSACKYHPKLIERVKYTRAESITIDMLKALWEVEEIVVGTARVATGANDSFGDVWGPDVWLGYVSDNPDPSVEEPSFGYTYQIEGHPLVEVPYWDNNAKSWIYGVSDDNTPALSGMLAGYLIEDAGLPAALEHHHHHH | not failed
MKIAVLGATGRAGSAIVAEARRRGHEVLAVVRDPQKAADRLGATVATLVKEPLVLTEADLDSVDAVVDALSVPWGSGRGYLHLDFATHLVSLLRNSDTLAVFILGSASLAMPGADHPMILDFPESAASQPWYDGALYQYYEYQFLQMNANVNWIGISPSEAFPSGPATSYVAGKDTLLVGEDGQSHITTGNMALAILDQLEHPTAIRDRIVVRDADLEHHHHHH | not failed
MITKDVKEQLIQVSGPENFDDSNAGRLVYSYDATPQYQSMPDAVIAPRNTDEISRILTICSEHRVPIVPRGSGTNLCGGTCPTEGGLVLLFKHMNQILEIDEENLTATVQPGVITLDMIRAVESKGLFYPPDPSSMKISTIGGNINENSGGLRGLKYGVTRDYVIGLEVVLANGDIIRTGGKLAKDVAGYDLTRLFVGSEGTLGIVTEAIVKLVPKPETKKTLLALYENIDAAAQTVSDIIAAKIIPATLEFLDQPTLLVIEDYAKIGLPTSAKAVLLIEQDGPFETVERDMEKIEAICKKGDAVSVQTAQTEEEAFALTEARRSALSALARLKPTTILEDATVPRSEIANMVKAINDIAAKYDISICTFGHAGDGNLHPTCTTDIRNKDEMERVEQAFAEIFEKAIELGGTITGEHGVGEMKAPYLEMKLKKEGIDAMKALKAAFDPRNILNPGKMFAKDARKRVVAER | failed
